# In PMC11018352, “Guanidine production by plant homoarginine-6-hydroxylases” (eLife, 2024):
# T1: Din11s (2-ODD-C23.2, short variant of Din11) (Arabidopsis thaliana, UniProt Q8H113)
# T1 construct: gene 2ODDC23.2
# T1 sequence (Q8H113 26-357): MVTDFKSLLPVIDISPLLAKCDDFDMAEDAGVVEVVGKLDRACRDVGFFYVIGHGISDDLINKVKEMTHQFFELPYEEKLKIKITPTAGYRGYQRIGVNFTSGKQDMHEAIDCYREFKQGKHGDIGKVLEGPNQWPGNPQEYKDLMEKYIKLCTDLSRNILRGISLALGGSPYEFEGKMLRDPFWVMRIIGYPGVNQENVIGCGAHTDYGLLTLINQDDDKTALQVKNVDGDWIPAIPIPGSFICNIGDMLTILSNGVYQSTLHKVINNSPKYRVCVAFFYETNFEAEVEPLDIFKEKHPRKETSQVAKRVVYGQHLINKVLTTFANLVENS
# T2: At3g50210 (2-ODD-C23.1) (Arabidopsis thaliana, UniProt Q84MB6)
# T2 construct: gene 2ODDC23.1
# T2 sequence (Q84MB6 1-332): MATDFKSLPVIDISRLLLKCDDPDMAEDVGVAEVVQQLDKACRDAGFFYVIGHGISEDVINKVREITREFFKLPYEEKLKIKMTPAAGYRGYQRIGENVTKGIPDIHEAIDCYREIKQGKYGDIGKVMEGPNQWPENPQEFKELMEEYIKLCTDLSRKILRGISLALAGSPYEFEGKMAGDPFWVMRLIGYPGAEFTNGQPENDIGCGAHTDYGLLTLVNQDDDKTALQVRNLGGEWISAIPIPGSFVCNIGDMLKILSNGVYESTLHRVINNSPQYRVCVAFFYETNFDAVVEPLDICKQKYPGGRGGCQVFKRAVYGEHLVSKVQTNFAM
# T3: Gm2-ODD-C23 (soybean 2-ODD-C23) (Glycine max, UniProt A0A0R4J5R0)
# T3 construct: gene 2ODDC23
# T3 sequence (A0A0R4J5R0 1-331): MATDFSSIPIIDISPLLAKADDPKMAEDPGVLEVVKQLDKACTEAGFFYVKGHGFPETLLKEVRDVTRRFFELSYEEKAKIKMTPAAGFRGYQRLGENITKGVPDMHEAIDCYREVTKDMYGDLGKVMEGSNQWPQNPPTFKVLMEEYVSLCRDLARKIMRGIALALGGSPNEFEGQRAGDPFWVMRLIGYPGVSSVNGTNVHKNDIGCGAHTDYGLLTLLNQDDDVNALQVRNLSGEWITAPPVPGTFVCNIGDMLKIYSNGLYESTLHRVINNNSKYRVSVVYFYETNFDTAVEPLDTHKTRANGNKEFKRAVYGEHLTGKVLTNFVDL
# T4: 2-ODD33 (Os2-ODD33, rice 2-ODD-C23 ortholog) (Oryza sativa, UniProt Q6K332)
# T4 sequence (Q6K332 1-328): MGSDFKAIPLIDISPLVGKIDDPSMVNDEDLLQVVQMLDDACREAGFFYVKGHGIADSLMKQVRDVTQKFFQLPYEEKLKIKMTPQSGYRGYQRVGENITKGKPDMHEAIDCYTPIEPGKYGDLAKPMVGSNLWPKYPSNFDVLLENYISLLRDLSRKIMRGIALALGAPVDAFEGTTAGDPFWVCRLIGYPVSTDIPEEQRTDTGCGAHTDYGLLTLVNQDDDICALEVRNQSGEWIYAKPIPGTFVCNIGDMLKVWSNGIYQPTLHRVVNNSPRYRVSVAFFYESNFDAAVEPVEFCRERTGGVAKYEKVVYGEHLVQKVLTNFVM
# B1: At3g50210 (2-ODD-C23.1) (Arabidopsis thaliana) (protein)
# chain: T2 sequence (Q84MB6 1-332)
# B2: At3g49630 (2-ODD-C23.3) (Arabidopsis thaliana) (protein)
# chain: MATNFKSLLPVIDISPLVVKCDDANMAEDAGVAEVVGKLDRACRDAGFFYVIGHGISEDFIRKVRVMSHQFFELPYEEKLKIKITPAAGYRGYQRIGLNLTNGKQDMHEAIDCYKEFKQGKHGDIGKVMEGANQWPENPQEYKELMEEYIKLCIDLSRNILRGISLALGGSPYEFEGKMLTDPFWIMRILGYPGVNQENVIGCGAHTDYGLLSLINQDDDKTALQVRDLAGDWIPVIPIPGSFVCNIGDMLKILSNGVYESTLHRVINNSPRYRVCVGFFYETNFDAAVEPLDIFKEKYPGKGTSQVFKRVVYGEHLVHKLQTTFQNLVEHS
# notes: b44 prints At3g49620, apparently a slip for At3g49630
# B3: OsP5CR (pyrroline-5-carboxylate reductase from rice) (Oryza sativa Japonica Group) (protein)
# chain: MAAPPQPVPAPAAASPEVFRLGFIGPGNLAESIARGVAASGVLPATAIRTAPHRRPERAEAFSSIGAHILETNAQVVDDSDVIVISVKPQIVRQVLVELKPLLSEEKLLVSIAAGIKMEDLQGWSGHRRFIRVMPNTPSAVGQAASVMCLGEMATENDENRVRSLFSAIGKVWTAEEKYFDAVTGLSGSGPAYIFLAIEAMADGGVAAGLPRDLALGLASQTVLGAATMVNKTGKHPGQLKDMVTSPAGTTITGIQELEKGAFRGTLINAVVAATKRCRELSQS
# notes: recombinant, purified
# B4: AtALDH7B4 (At1g54100, AASA-DH) (Arabidopsis thaliana) (protein)
# chain: MGSANNEYEFLSEIGLTSHNLGSYVAGKWQANGPLVSTLNPANNQPIAQVVEASLEDYEQGLKACEEAAKIWMQVTAPKRGDIVRQIGDALRSKLDYLGRLLSLEMGKILAEGIGEVQEVIDMCDFAVGLSRQLNGSVIPSERPNHMMLEMWNPLGIVGVITAFNFPCAVLGWNACIALVCGNCVVWKGAPTTPLITIAMTKLVAEVLEKNNLPGAIFTAMCGGAEIGEAIAKDTRIPLVSFTGSSRVGSMVQQTVNARSGKTLLELSGNNAIIVMDDADIQLAARSVLFAAVGTAGQRCTTCRRLLLHESVYDKVLEQLLTSYKQVKIGNPLEKGTLLGPLHTPESKKNFEKGIEVIKSQGGKILTGGKAVEGEGNFVEPTIIEISADAAVVKEELFAPVLYVLKFKSFGEAVAINNSVPQGLSSSIFTRNPENIFRWIGPLGSDCGIVNVNIPTNGAEIGGAFGGEKATGGGREAGSDSWKQYMRRSTCTINYGNELPLAQGINFG
# B5: Din11s (2-ODD-C23.2, short variant of Din11) (Arabidopsis thaliana) (protein)
# chain: T1 sequence (Q8H113 26-357)
# Legend:
# [1] = biological target: T1, Din11s (2-ODD-C23.2, short variant of Din11); assay: inhibition of homoarginine-dependent O2 consumption; assay type: biochemical; details: competitive versus homoarginine; 1 mM canavanine, 0.5 mM 2-oxoglutarate, pH 7.2, 30 °C
# At3g50210 (2-ODD-C23.1) = biological target: T2, At3g50210 (2-ODD-C23.1); assay: as above; assay type: biochemical; details: 0.5 mM 2-oxoglutarate, pH 7.2, 30 °C
# [2] = biological target: T3, Gm2-ODD-C23 (soybean 2-ODD-C23); assay: guanidine production in expressing E. coli culture, LC-MS; assay type: cell-based; details: 1 mM homoarginine in medium, 18 °C overnight
# [3] = biological target: T4, 2-ODD33 (Os2-ODD33, rice 2-ODD-C23 ortholog); assay: as above; assay type: cell-based; details: 1 mM homoarginine in medium, 18 °C overnight
# [4] = substrate: N=C(N)NCCCC[C@H](N)C(=O)O; assay: O2 consumption, Clark-type electrode; assay type: biochemical, Arabidopsis thaliana; details: 0.5 mM 2-oxoglutarate, Fe2+, ascorbate, pH 7.2, 30 °C
# [5] = substrate: O=C(O)[C@@H]1CCCC=N1; assay: NADH oxidation, spectrophotometric; assay type: biochemical, Oryza sativa; details: NADH as electron donor (fixed 1 mM), pH 7.5, 35 °C
# [6] = substrate: N[C@@H](CCCC=O)C(=O)O; assay: NAD+ reduction, spectrophotometric; assay type: biochemical, Arabidopsis thaliana; details: 1 mM NAD+, pH 7.5, 35 °C, substrate is the AASA/P6C equilibrium mixture
# [7] = substrate: NC(=O)c1ccc[n+]([C@@H]2O[C@H](COP(=O)(O)OP(=O)(O)OC[C@H]3O[C@@H](n4cnc5c(N)ncnc54)[C@H](O)[C@@H]3O)[C@@H](O)[C@H]2O)c1; assay: NAD+ reduction, spectrophotometric; assay type: biochemical, Arabidopsis thaliana; details: 1 mM AASA/P6C, pH 7.5, 35 °C, varied: cofactor
# [8] = substrate: N=C(N)NCCC[C@H](N)C(=O)O; assay: O2 consumption, Clark-type electrode; assay type: biochemical, Arabidopsis thaliana; details: 0.5 mM 2-oxoglutarate, Fe2+, ascorbate, pH 7.2, 30 °C
molecule,measurement,setting,value
N=C(N)NOCC[C@H](N)C(=O)O [canavanine],inhibition of homoarginine-dependent O2 consumption,[1],canavanine showed competitive inhibition of the reaction of Din11s with homoarginine
same,inhibition of homoarginine-dependent O2 consumption,"At3g50210 (2-ODD-C23.1); mixed type versus homoarginine, 1 mM canavanine",the inhibition of At3g50210 was of the mixed type
N=C(N)NCCCC[C@H](N)C(=O)O [homoarginine],"guanidine production in expressing E. coli culture, LC-MS",[2],orthologs from soybean and rice (2-ODD33) mediated homoarginine-dependent guanidine accumulation
same,"guanidine production in expressing E. coli culture, LC-MS",[3],orthologs from soybean and rice (2-ODD33) mediated homoarginine-dependent guanidine accumulation
N=C(N)NCCC[C@H](N)C(=O)O [arginine],inhibition of homoarginine-dependent O2 consumption,"At3g50210 (2-ODD-C23.1); competitive versus homoarginine, 1 mM arginine",we detected a competitive inhibition of Din11s and At3g50210
B1,Km,[4],780 ± 150 µM
B2,Km,[4],4600 ± 200 µM
B3,Km,[5],173 ± 18 µM
B4,Km,[6],11.9 ± 1.0 µM
same,Km,[7],324 ± 17 µM
B5,Km,[8],6000 ± 5100 µM
same,Km,[4],1900 ± 300 µM
